Consider one substance from patent US20170166621A1.

The target of this assay is GLP-1 receptor (UniProt P43220). The assay is described as follows: cell-based or functional assay.
Chain of GLP-1 receptor (P43220 24-463 limits assumed): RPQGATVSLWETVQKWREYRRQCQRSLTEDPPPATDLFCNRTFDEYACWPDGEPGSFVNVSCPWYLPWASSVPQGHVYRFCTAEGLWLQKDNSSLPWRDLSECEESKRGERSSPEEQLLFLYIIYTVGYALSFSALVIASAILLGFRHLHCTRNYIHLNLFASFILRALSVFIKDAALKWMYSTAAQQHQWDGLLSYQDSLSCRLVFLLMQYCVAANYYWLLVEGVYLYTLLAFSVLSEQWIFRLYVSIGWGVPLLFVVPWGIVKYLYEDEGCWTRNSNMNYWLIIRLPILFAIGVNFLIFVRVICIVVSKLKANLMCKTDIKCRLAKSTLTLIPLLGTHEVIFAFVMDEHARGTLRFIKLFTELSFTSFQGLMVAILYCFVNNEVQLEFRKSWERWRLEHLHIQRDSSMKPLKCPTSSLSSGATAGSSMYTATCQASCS

The substance Exendin-4 (peptide) registered a cAMP EC50 (fold-Ex-4); GLP-1R only cells of 1 fold, a cAMP EC50 (fold-Ex-4); GLP-1R/FGFR1c/beta-klotho cells of 1 fold, a cAMP EC50 (nM); GLP-1R only cells of 11 nM and a cAMP EC50 (nM); GLP-1R/FGFR1c/beta-klotho cells of 6 nM. The cAMP y-max (% Ex-4); GLP-1R only cells came to 100% and the cAMP y-max (% Ex-4); GLP-1R/FGFR1c/beta-klotho cells is 100%.
